The text below walks through data of US11448657B2, “Methods and kits for assessing Heparanase procoagulant activity, compositions comprising Heparanase, and methods for the treatment of coagulation-related disorders” (RAMBAM MED-TECH, priority 2011, dated 2022).

Series [1] concerns ICR mice. As to the kind of experiment: LPS-induced sepsis in ICR mice. Type of series: in vivo. As to the method:
(§1) FIG. 19: IL-6 as a marker of sepsis severity Heparanase, LPS and LPS+heparanase were injected intra-peritoneal to ICR mice. Four hours later the blood was drawn and IL-6 level was measured by ELISA.
Heparanase, LPS and LPS+heparanase were injected intra-peritoneal to ICR mice. Four hours later the blood was drawn and thrombin-antithrombin (TAT) (20A) and D-dimer (20B) levels were evaluated by ELISA. Levels of TAT and D-dimer were reduced in the LPS+heparanase group compared to LPS alone in accordance with a severe activation of the coagulation system (p<0.05).
(§2) Methods: ICR mice, heparanase knock-out mice and heparanase over-expression mice were studied. Sepsis was induced by intra-peritoneal injection of lipopolysaccharides (LPS). Inhibitory peptides to TF/heparanase complex (number 11, 22, 5, 6, 7, 12, and 21 [SEQ IDs: 1-7]) were injected intra-peritoneal half an hour after heparanase or LPS. After 4 hours blood was obtained via sub-mandibular plexus puncture followed by mice sacrificing. Levels of thrombin-antithrombin (TAT), D-Dimer and IL-6 were tested using ELISA. Western blot to plasma factor VII and immunostaining of fibrinogen in lung, kidney and spleen were performed.

Series [2] relates to ICR mice. As to the kind of experiment: Intra-peritoneal injection of heparanase to ICR mice, blood drawn after 4 hours (ELISA). Type of series: in vivo. The settings on record: for IL-6 level: heparanase intra-peritoneal. As to the method: Heparanase or LPS were injected to ICR mice and blood was drawn after 4 hours. Intra-peritoneal injection of heparanase (0.5 μg/mg) compared to PBS injection increased TAT (p<0.05) (18A) and D-Dimer (p<0.05) (18B) levels to similar levels induced by LPS (5 μg/mg).
as §1, §2
(In general: In an ELISA, binding on a coated surface is turned into a signal by an enzyme label.)

[3] abbreviates: LPS+heparanase compared to LPS alone, 4 hours.
Where [4] appears, read: heparanase half an hour following LPS.
Where [5] appears, read: heparanase 0.5 μg/mg intra-peritoneal, 4 hours, compared to PBS.

B1: heparanase: single chain GS3 active heparanase, comprised of the 8 kDa and 50 kDa heparanase heterodimer (8+50), recombinant human (protein, listed as Homo sapiens)
chain 1: DPAQDVVDLDFFTQEPLHLVSPSFLSVTIDANLATDPRFLILLGSPKLRTLARGLSPAYLRFGGTKTDFLIFDPKKE
chain 2: DPGKKFKNSTYSRSSVDVLYTFANCSGLDLIFGLNALLRTADLQWNSSNAQLLLDYCSSKGYNISWELGNEPNSFLKKADIFINGSQLGEDFIQLHKLLRKSTFKNAKLYGPDVGQPRRKTAKMLKSFLKAGGEVIDSVTWHHYYLNGRTATREDFLNPDVLDIFISSVQKVFQVVESTRPGKKVWLGETSSAYGGGAPLLSDTFAAGFMWLDKLGLSARMGIEVVMRQVFFGAGNYHLVDENFDPLPDYWLSLLFKKLVGTKVLMASVQGSKRRKLRVYLHCTNTDNPRYKEGDLTLYAINLHNVTKYLRLPYPFSNKQVDKYLLRPLGPHGLLSKSVQLNGLTLKMVDDQTLPPLMEKPLRPGSSLGLPAFSYSFFVIRNAKVAACI
modifications: single-chain GS3 linker
For the molecule B1, in series [1] (setting [3]), the D-dimer level entry was “reduced levels”, the IL-6 level entry is “further augmented IL-6 level compared to LPS alone” and the TAT level result is reported as “reduced levels”. In addition, in series [1] (setting [4]), the “blood leak from puncture” value is on record as “profuse blood leak from puncture”, the “factor VII by western blot” value is “reduced levels”, the fibrinogen by immunostaining entry is “reduced levels” and the “levels of IL-1” value was “maximal levels of IL-1”. The signs of illness entry in series [2] (heparanase 0.5 μg/mg intra-peritoneal) was “mice did not show signs of illness”. Further, in series [2] (setting [5]), the D-dimer level entry is reported as “increased” and the TAT level result was “increased”. In addition, the IL-6 level entry in series [2] (4 hours) is reported as “levels of IL-6 did not rise”. Besides, in series [2] (4 hours, listed as Heparanase), the IL-6 level result is reported as “did not increase IL-6 level”.
